Data on 41 sequences can be found in the nanobody polyreactivity screen of Harvey et al. (2022).

The nature of the series: yeast display, Sf9 membrane polyspecificity reagent, FACS + sequencing; frameworks hold sequencing errors. In outline: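 Genes from sorted yeast were amplified by colony PCR, read by MiSeq 2 × 250 sequencing and filtered on CDR length. These cells carried a synthetic nanobody library in Saccharomyces cerevisiae BJ5465 and were sorted by FACS into low and high (top ~1%) gates on anti-HA and streptavidin fluorescence. Polyreactivity is labelled according to the gate of origin.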
With “QVQLLESGGGLVQAGGSLRLRCAASGTIFRISYMGSYRHAPGKEREFVAAITYCANTYYADSGKGRFTISRDNAKKTVYLHMNSLKPEDTAVYYCAVPPVKETFLDYWGQGTQVTVSS”, the “polyreactivity (PSR sort gate)” value is listed as “low polyreactivity”.
For the sequence “QVQLLESGGGLVQAGGSLRLRCASSGRIFVYYAMGWYRQAPGKERELVAANRWTGGSTYYADSVKGRFTISRDNAKNTVYLQMNSLKPEDTAVYYCATVNRYGHFNYWGQGTQVTVSS”, the “polyreactivity (PSR sort gate)” value is “high polyreactivity”.
“QVQLLESGGGLVQAGGSLRLSCAASGFSFEYYAMGWSRQAPGKDRELVAAIRSVSGTNYADSVKGRFTISRDNAKNTVYLQMNSQKPEDTAVYYCAKLRYPYLFLDDSEYWGQRTQVTVSS”: the “polyreactivity (PSR sort gate)” value is listed as “low polyreactivity”.
The result for “QVQLLESGGGLVQAGGSLRLSCAASGFTFKRNAKGWYRQAPGKEREFVAAITSSGGSTYYADSVKGRFTISRDNAKNTVYLQMNSLKPEDTAVYYCAARSKGAYPTRPLPGGYGYWGQGTQVTVSS” reads “high polyreactivity”; that for “QVQLLESGGGLVQAGGSLRLSCAASGFTFWYYAMVWYRQAPGKERELVAAITRGGSTNYADSVKGRFTISRDNAKNTVYLQMNSLKPEDTAVYYCAATIYDYNRAGKYYYWGQGTQVTVSS”, “high polyreactivity”; that for “QVQLLESGGGLVQAGGSLRLSCAASGIIFGYYAMGWYRQAPGKERELVAAITWSGGSTYYADSVKGRFTISRDNAKNTVYLQMNSLKPEDTAVYYCNADDDGRVSSTIVEYWVQGTQVTVSS”, “low polyreactivity”.
Then “QVQLLESGGGLVQAGGSLRLSCAASGITFLLNAMGWYRQAPGKERELVAAISRSGGRTYYADSVKGRFTISRDNAKNTVYLQMNSLKPEDTAVYYCAVVTQFGDGYYWGQGTQVTVSS”, with “high polyreactivity”; and “QVQLLESGGGLVQAGGSLRLSCAASGLIFRSYAMGWYRQAPGKERELVARISIRGGSTYYADSVKGRFTISRDNAKNTVYLQMNCLKPEDTAVYYCAAVGYFGGYRYDYWGQGTQVTVSS”, with “high polyreactivity”; and “QVQLLESGGGLVQAGGSLRLSCAASGNIFQVNAMGWYRQAPGKERELVASISRRGGSTNYADSVKGRFTISRDNAKNTVYLQMNSLKPEDTAVYYCAAVARRGSYLGQRLDYWGQGTQVTVSS”, with “high polyreactivity”.
For “QVQLLESGGGLVQAGGSLRLSCAASGRIFRAYAMGWYRQAPGKERELVAAISWRYGSTYYADSVKGRFTISRDNAKNTVYLQMNSVKPEDTAVYYCAAEYDWPGYDYWGQGTQVTVSS”, the “polyreactivity (PSR sort gate)” value is given as “high polyreactivity”.
The result for “QVQLLESGGGLVQAGGSLRLSCAASGRILRINTMGWYRQAPGKERELVAAISWSGGTTYYADSVKGRFTISRDNAKNTVYLQMNSLKPEDTAVYYCNKAIWYAEYDYWGQGTQVTVSS” reads “low polyreactivity”; that for “QVQLLESGGGLVQAGGSLRLSCAASGRTFTRNAMGWYRQAPGKERELVAAISYRVGSTYYADSVKGRFTISRDNAKNTVYLQMNSLKPEDTAVYYCATGRGHSYGGDDYWGQGTQVTVSS”, “high polyreactivity”; that for “QVQLLESGGGLVQAGGSLRLSCAASGRTFYFYVMGWYRQAPGKERELVARISWSGGSTYYADSVKGRFTISRDNSKNTVYLQMNSLKPEDTAVYYCNTVDSIPIGSGLYYYWGQGTQVTVSS”, “low polyreactivity”.
With “QVQLLESGGGLVQAGGSLRLSCAASGRTSYIYSMGWYRKAPGKEREFVADITWSGGSTYYADSVKGRFTISRDNAKNTVYLQMNSLKPEDTAVYYCNADLLSWWGVEYYYWGQGTQVTVSS”, the “polyreactivity (PSR sort gate)” value is reported as “high polyreactivity”.
The result for “QVQLLESGGGLVQAGGSLRLSCAASGSIFDYNAMGWYRQAPGNERELVADITISDDSTYYADSVKGRFTISRDNAKNTVNLQMNSRQPEDTAVYYCAADIKYYWYYYYWAYAYDYWGQGTQVTVSS” reads “high polyreactivity”; that for “QVQLLESGGGLVQAGGSLRLSCAASGSIFGLYAMGWYRQAPGKERELVAALTWSSGNTYYADSVKGRFTISRDNAKNTVYLQMNSLKPEDTAVYYCSARVYRYGAMDYWGQGTQVTVSS”, “high polyreactivity”.
Then “QVQLLESGGGLVQAGGSLRLSCAASGSIFLLNAMGWYRQAPGKERELVASISRGGVRTNYADSEKGRFTISRDNAKNTVYLQMISLKPEDTAVYYCAAGTRPFGYRRDYWGQGTQVTVSS”, with “high polyreactivity”; and “QVQLLESGGGLVQAGGSLRLSCAASGSIFTPNNMGWYRQAPGKESEFVAAITFSGGSTYYADSVKGRFTISRDNAKNTVYLQMNSLKPEDTSVYYCAAVYPTYDWYTPAYYYWGQGTQVTVSS”, with “low polyreactivity”.
On to “QVQLLESGGGLVQAGGSLRLSCAASGSIFTVYAMGWYRQAPGKERELVAAITGSGGRTYYADSVKGRFTISRDNAKNTVYLQRNSLKPEDTAVYYCAATTRPGYRYEGDYWGQGTQVTVSS”, for which the “polyreactivity (PSR sort gate)” value is on record as “low polyreactivity”.
On to “QVQLLESGGGLVQAGGSLRLSCAASGSIFVGYAMGWYRPAPGKERELVASITTPGGSTHYADSVKGRFTISRDNAKNTVYLQMNSLKPEDTAVYYCAADSLSNGVLQYLPGYDYWGQGTQVTVSS”, for which the “polyreactivity (PSR sort gate)” value is “low polyreactivity”.
The result for “QVQLLESGGGLVQAGGSLRLSCAASGSIFVKYDMGWYRQAPGKDRELVAAIRSGASTTYADSVKGRFTISRDNAKITVYLQMNSLKPEDTAVYYCAADQRGWGYTYGKGGDYWGQGTQVTVSS” reads “low polyreactivity”; that for “QVQLLESGGGLVQAGGSLRLSCAASGSIIPYYAMGWYRQAPGKESELVAAITSGGGSTYYADSVKGRFTISRDNAMNSVYLQMNSLKPEDTAVYYCAAVLTSYYGGDYWGQGTQVTVSS”, “low polyreactivity”; that for “QVQLLESGGGLVQAGGSLRLSCAASGSILFTNAMGWYRQAPGKERELVAAISSGGSTYYADSVKGRFTFSRDNAKNTVYLQMNSLKPEDTAVYYSAADQLNVGREYVEYDYWGQGTQVTVSS”, “low polyreactivity”.
Turning to “QVQLLESGGGLVQAGGSLRLSCAASGSILIKYAMGWYRQAPGKERELVATITSGGSTYYADSVKGRFTISRDNAKNTVYLQMNSLKPEDTAVYYCATGQYYYYGIVAFFELDYWGQGTQVTVSS”, the “polyreactivity (PSR sort gate)” value is listed as “low polyreactivity”.
Take “QVQLLESGGGLVQAGGSLRLSCAASGSTFCANAMGWYRQAPGKVWELVARITYSGGSTYYADSVKGRFTISRDNAKNTVYLQMNSLKPDDTAVYFCAADLPGKFDYWGQGTQVTVSS”: the “polyreactivity (PSR sort gate)” value is on record as “low polyreactivity”.
Regarding “QVQLLESGGGLVQAGGSLRLSCAASGSTFKKNAMGWYRQAPGKETELVAAISGIGTRTSYADSVKGRFTISRDNAKNTVYLQMNSLKPEDTAVYYCAARYYGFPSTLKYDYWGQGTQVTVSS”, the “polyreactivity (PSR sort gate)” value is “high polyreactivity”.
Then “QVQLLESGGGLVQAGGSLRLSCAASGSTFLYNAMGWYRQAPGKERELVAGIRRSGGSTYYADSVKGRFTISRDNAMNTVYLQMNSLKPEDTAVYYCNTDRTLSYQYGGYDYWGQGTQVTVSS”, with “low polyreactivity”; and “QVQLLESGGGLVQAGGSLRLSCAASGSTFWWNTMGWYRQAPGKERELVADIRPSGGGTYYADSVKGRFTISRDNAKNTVYLPMHSLKPEATAVYYCNADPKWEMGSWGQGTQVTVSS”, with “low polyreactivity”; and “QVQLLESGGGLVQAGGSLRLSCASSGYINSYYTMGWYRHATGKERVLVASIRWAGGRTYYADSVKGRFTFSRDNAKITVYLQMNSLKPEDTAVYYCNVKSSRFLDVGRMEYWGQGTQVTVSS”, with “high polyreactivity”.
The result for “QVQLLESGGGLVQAGGSLRLSSASSSFIFYSNDMGSYRQAPGKERELVAAISRRCGSTYYADSVKGRFTISRDNAKNTVFLQMNSLKPEDTAVYYCAARVGSGFDSWGQGTQVTVSS” reads “high polyreactivity”; that for “QVQLLESGGGLVQAGGSLRLTCAASGFTFDLNAMGWYRQAPGKERELVAAISYSGDDTYYADSVKGRFTISRDNAKNTVYLQMNSLKPEDTAVYYCAADATWTYYQLYDYWGQGNQVTVSS”, “low polyreactivity”; that for “QVQLLESGGGLVQAGGSLRLTCAASGITFQYYAMGWYRQAPGKERELVAAITSSGVSTYYADSVKGRFTISRDNAKNTVYLQMNSLKPEDTAVYYCNTVVRGWSSSAYDYWGQGTQVTVSS”, “low polyreactivity”.
For “QVQLLESGGGLVQAGGSLRLTCAASGRTFQYNAMGWYRQAPGKERELVGAISSTGGSTYYADSVKGRFTISRDNAKNTVYLQMNSLKPEDTAVYYCARQGRYTRGDYWGQGTQVTVSS”, the “polyreactivity (PSR sort gate)” value was “high polyreactivity”.
Then “QVQLLESGGGLVQAGGTLRLSCAASGYTFAWYAMVWSRQAPGKERELVAAINNGGSTSYADSVKGRFTISRDNAKNTVYLQMNSLKREDTAVYYCAARPGAHPDRLDYWGQGTQVTVSS”, with “low polyreactivity”.
Then “QVQLLESGGGLVQAGRSLRLSCAPSGIIFRVYAMGWYRQAPGKERELVAAISSSGGNTYYADSVKGRFTISRDNAKNTVYLQLNSLKPEDTAVYYCAAPYGQLFTQGTWYEYWGQGTQVTVSS”, with “low polyreactivity”.
In the case of “QVQLLESGGGLVQARGSLRLSCAASGSIFTYYAMGWYRQAPGIEREFVAAISRRGGSTYYADSVKGRFTISRDNAKNTVYLQMNSLKAVDTAVYYCAKDPSFTRGYKEGGGYDYWGQGTQVTVSS”, the “polyreactivity (PSR sort gate)” value was “high polyreactivity”.
The result for “QVQLLESGGGLVQAVGSLRLSCAASGIIFWVNAMGWYRQAPGKERELFAAIRSDGSTKYADSVKGRFTISRDNAKNTVYLLMNSLKPEDTAHYYCAKRDYSYTWLRDYYYWGQGTQVTVSS” reads “low polyreactivity”; that for “QVQLLESGGVLDQAGGSLRLTCAASGSIFFTNAMGWYRQAPGKERELVAAIRQSGGSTFYADSVKGRFTISRDNAKNTVYLQLNSLKPEDTAVFYCNADGRHKWQYSSYDYWGQGTQLTVSS”, “low polyreactivity”; that for “QVQLQDSGGGLVLAGGSLRLSCSASGNISVYGSMGWYRQAPGKEREFVATIDPGTNTNYADSVKDRFTISRDNAKNTVYLQMNSLKPEDTAVYYCAVEAGSDWPYRYWGQGTQVTVSS”, “low polyreactivity”.
Then “QVQLQDSGGGLVQAGGSLRLSCAASGTISYRYRMGWYRQAPRKELELVAGIRFGSITYYADSVKGRFTISRDNAKNTVYLQMNSLKPEDIAVYYCAVYQKSYRFFPYWGQGTQVTVSS”, with “high polyreactivity”; and “QVQLQDSGGGLVQAGGSLRQSYAASGYIFPSLAMGWYRQAPGKEREFVAAIGRGSTNNYADSVKGRFTISRDNAKNTAYQQMNSLKPEDTAVYYCAAAASPLTRHLYWGQGTQVTVSS”, with “low polyreactivity”.
